Reference: US20170320956A1 (KYMAB, published 2017)
Where a chain is given by its changes, count along the chain named. Where two headings read alike, the source gives them in different places.

What was measured:
[1] = target: T1, recombinant human LIGHT-214E, FLAG-tagged extracellular domain (human); assay: HTRF competition, LTβR-Fc binding to Flag-hLIGHT-214E
T1 construct: Trimer; Biotinylated in some assays
T1 chain: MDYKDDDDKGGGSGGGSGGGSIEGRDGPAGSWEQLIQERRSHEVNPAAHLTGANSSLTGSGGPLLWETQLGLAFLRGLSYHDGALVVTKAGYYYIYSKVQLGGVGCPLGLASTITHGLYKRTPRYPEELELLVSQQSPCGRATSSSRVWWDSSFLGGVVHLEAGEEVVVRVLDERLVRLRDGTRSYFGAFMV
Description: (§1) The following methods were carried out with a titration of inhibitor in order to establish the clone potency as measured by IC50 values in the assay. 5 μl of Flag-tagged hLIGHT (in-house) diluted to 2.5 nM final concentration (10 nM working concentration) in HTRF buffer with 5 μl of a titration of antibody purified from hybridoma supernatant diluted in HTRF assay buffer from 300 nM final (1200 nM working concentration) was pre-incubated for 1 hour at room temperature. To wells used to define total binding, 5 μl of LIGHT (10 nM working, 2.5 nM final) and 5 μl of hybridoma maintaining media (HMM,)) were added. To wells used to define non specific binding (receptor only) 10 μl of HMM was added. Total and non specific binding wells were pre-incubated for 1 hr at RT in the same plate as wells containing titration of inhibitor.
(§2) LIGHT receptor was diluted in HTRF assay buffer and added to all wells, 5 μl/well of HVEM-Fc or LTβR-Fc (R&D systems) at 1.2 nM for HVEM (0.3 nM final) and 0.4 nM for LTβR (0.1 nM final).

[2] = target: human LIGHT-214E, full length, expressed on the surface of CHO-S cells (human, UniProt O43557 1-240); assay: flow cytometry, CHO-S cells expressing hLIGHT-214E
[3] = target: T1, recombinant human LIGHT-214E, …; assay: cell-based or functional assay
[4] = target: T1, recombinant human LIGHT-214E, …; assay: HTRF competition, HVEM-Fc binding to Flag-hLIGHT-214E
Description: as §1, §2

[5] = target: T2, recombinant human LIGHT-214K, FLAG-tagged extracellular domain (human); assay: SPR ProteOn, mAb captured on anti-mouse IgG, LIGHT 256 nM, 25 C, apparent affinity
T2 construct: the IgK leader peptide is marked only by underlining (not visible here), so its residues were not removed; Trimer
T2 chain: T1 chain with E166K
Description: (§3) SPR analysis was carried out using the ProteOn™ XPR36 Array System (BioRad). Anti-mouse IgG (GE Healthcare BR-1008-38) was immobilised on a GLC biosensor surface using amine coupling, the surface was then blocked using 1M ethanolamine. […] Apparent affinities for the LIGHT-antibody interaction were determined using the 1:1 model inherent to the ProteOn XPR36 analysis software. The assay was run using HBS-EP (Teknova) as running buffer and carried out at 25° C.

[6] = target: T1, recombinant human LIGHT-214E, …; assay: HTRF competition, AlexaFluor 647 LTβR-Fc binding to Flag-hLIGHT-214E
Description: as §1
(§4) The final IgG4(PE) format lead panel was analysed for neutralization activity as in Example 3. Antibodies were tested for their ability to neutralize LIGHT binding to its receptors, HVEM and LTβR, in an HTRF assay. Antibodies were also tested for their ability to neutralize LIGHT-induced IL-8 release by HT29 colon carcinoma cells.
(§5) HTRF assays were performed as per Example 3, with the following modifications: HVEM-Fc and LTβR-Fc were labelled with AlexaFluor 647, and an anti-Flag K antibody (Cisbio) was used for detection.

[7] = target: T3, rabbit LIGHT protein, FLAG-tagged extracellular domain (rabbit); assay: SPR ProteOn, mAb captured on anti-human IgG, 25 C
T3 chain: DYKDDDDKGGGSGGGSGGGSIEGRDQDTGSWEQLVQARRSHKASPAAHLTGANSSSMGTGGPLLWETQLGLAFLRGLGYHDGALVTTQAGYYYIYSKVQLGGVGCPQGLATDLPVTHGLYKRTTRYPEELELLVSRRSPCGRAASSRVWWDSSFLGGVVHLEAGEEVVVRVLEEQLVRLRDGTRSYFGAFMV
Description: This created a capture surface suitable for capturing human antibodies. The LIGHT antibodies were captured on this anti-human IgG surface, and then human and rabbit LIGHT proteins were passed over captured LIGHT Abs at a concentration of 200 nM. A buffer injection was used to double reference the LIGHT binding sensorgrams. The assay was run at 25° C., using HBS-EP as running buffer.

[8] = target: T1, recombinant human LIGHT-214E, …; assay: HTRF competition, AlexaFluor 647 HVEM-Fc binding to Flag-hLIGHT-214E
Description: as §1, §4, §5

[9] = target: T1, recombinant human LIGHT-214E, …; assay: cell-based or functional assay
[10] = target: T1, recombinant human LIGHT-214E, …; assay: SPR ProteOn, mAb captured on anti-human IgG, 37 C
[11] = target: T4, recombinant cynomolgus monkey LIGHT, FLAG-tagged extracellular domain (cynomolgus (Macaca fascicularis), UniProt E9NVF7 59-240); assay: SPR ProteOn, mAb captured on anti-human IgG, 37 C
T4 construct: extracellular domain; also called cynomolgus LIGHT; cyno LIGHT

[12] = target: T1, recombinant human LIGHT-214E, …; assay: SPR ProteOn, mAb captured on anti-mouse IgG, LIGHT 256 nM, 25 C, apparent affinity
Description: as §3

[13] = target: T4, recombinant cynomolgus monkey LIGHT, …; assay: as above
Description: as §3

[14] = target: T5, mouse LIGHT (mouse, UniProt Q9QYH9 72-239, limits assumed); assay: SPR ProteOn, mAb captured on anti-mouse IgG
T5 construct: also called murine LIGHT
T5 sequence (looked up): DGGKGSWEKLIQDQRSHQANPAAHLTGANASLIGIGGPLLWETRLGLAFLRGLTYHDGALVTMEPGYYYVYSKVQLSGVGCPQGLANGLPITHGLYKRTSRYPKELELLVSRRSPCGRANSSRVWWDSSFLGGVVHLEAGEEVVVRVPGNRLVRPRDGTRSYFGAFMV

B1: 31A10 (purified from hybridoma supernatant) (antibody, V domains shown)
VH: QVQLQESGPGLVKPSGTLSLTCAVSGGSISSINWWNWVRQPPGKGLEWIGEVSHSGITNYNPSLKSRVTMSVDKAKNQFSLKLNSVTAADTAVYYCARERAVADYHGMDVWGQGTTVTVSS
VL: AIQLTQSPSSLSASVGDRVTITCRASQGISSALAWFQQKPGKPPKLLIFDASDLESGVSSRFSGSGSGTDFTLTISSLQPGDFATYYCQQFNSYPITFGQGTRLEIK
notes: Murine constant / human variable chimeric IgG, kappa, Protein G purified from hybridoma supernatant
With B1 the IC50 [1] was 1.45 nM, the binding result [2] was “binds” and the “HT29 IL-8 release, IC50” value [3] was 0.217 nM. For the same binder, the IC50 [4] was 0.662 nM and the Kd [5] was 0.349 nM.

B2: 31A10 in human IgG4(PE) format (antibody, V domains shown)
VH: B1 VH
VL: B1 VL
With B2 the IC50 [6] was 2.19 nM, the binding result [7] was “binds” and the IC50 [8] was 1.15 nM. For the same binder, the “HT29 IL-8 release, IC50” value [9] was 0.29 nM.

B3: 98C07 in human IgG4(PE) format (antibody, V domains shown)
VH: QVQLVESGGGLVKPGGSLRLSCAASGFTFSDYYMSWIRQAPGKGLEWVSYISRSSFIYYSESVKGRFTISRDNAKNSLYLQMNSLRAEDTAVYYCARWELSPFDYWGQGTLVTVSS
VL: DIQMTQSPSSLSASVGDRVTITCRASQGISNYLAWFQQKPGKAPKSLIYAASSLQSGVPSKFSGSGSGTDFTLTISSLQPEDFATYFCQQYNTYPFTFGPGTKVDIK
B3 was tested, and the IC50 [6] was 1.62 nM, the Kd [10] was 0.018 nM and the Kd [11] was 0.202 nM. The binding result [7] was “binds”, the IC50 [8] was 0.82 nM and the “HT29 IL-8 release, IC50” value [9] was 0.18 nM.

B4: 62C01 (purified from hybridoma supernatant) (antibody, V domains shown)
VH: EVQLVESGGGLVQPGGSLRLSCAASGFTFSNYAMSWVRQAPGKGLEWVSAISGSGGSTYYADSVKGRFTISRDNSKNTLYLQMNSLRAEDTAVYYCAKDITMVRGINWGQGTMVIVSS
VL: DIQMTQSPSSVSASVGDRVTITCRASQGISNWLAWYQQKPGKAPKLLIFAASSLQSGVPSRFSGSGSGTDFTLTISSLQPEDFATYYCQQSNSFPLTFGGGTKVEIK
notes: as for B1
For B4, the IC50 [1] was 2.66 nM, the binding result [2] was “binds” and the “HT29 IL-8 release, IC50” value [3] was 0.578 nM. It also gave an IC50 [4] of 1.6 nM, a Kd [5] of 23.6 nM and a Kd [12] of 1.02 nM. For the same binder, the Kd [13] was 1.64 nM.

B5: 29C09 (purified from hybridoma supernatant) (antibody, V domains shown)
VH: QEQLVQSGAEVKKPGASVKVSCKASGYTFTSYDINWVRQATGQGLEWMGWMNPNSGYTGYAQKFQGRVTMTRNTSIRTVYMELSSLRSEDTAVYYCARGGETFDIWGQGTMVTVSS
VL: SYELTQPPSVSVSPGQTARITCSGDALPKKYAYWYQQKSGQAPVLVIYEDSKRPSGIPERFSGSSSGTMATLTISGAQVEDEADYYCYSTDSSDNHSVFGTGTKVTVL
notes: Murine constant / human variable chimeric IgG, lambda, Protein G purified from hybridoma supernatant
With B5 the IC50 [1] was 1.55 nM, the binding result [14] was “no binding” and the binding result [2] was “binds”. The “HT29 IL-8 release, IC50” value [3] was 0.33 nM, the IC50 [4] was 0.922 nM and the Kd [5] was 0.605 nM. For the same binder, the Kd [12] was 0.311 nM and the Kd [13] was 2.28 nM.

B6: 14B09 (purified from hybridoma supernatant) (antibody, V domains shown)
VH: QVQLVQSGAEVKKPGASVKVSCRASGYTFTSYLMHWVRQAPGQRLEWMGWINVGNGNTKYSQKFQGRVTITRDTSASTAYMELSGLRSEDTAVYYCARNYYNWFDPWGQGTLVTVSS
VL: QSALTQPASVSGSPGQSITISCTGTSSDVGGYNYVSWYQQHPGKAPKLMIYDVSKRPSGVSNRFSGSKSGNTASLTISGLQAEDEADYYCFSYAGSSTVVFGGGTKLTVL
notes: as for B5
B6 was tested, and the IC50 [1] was 1.57 nM, the binding result [14] was “no binding” and the binding result [2] was “binds”. The “HT29 IL-8 release, IC50” value [3] was 1.31 nM, the IC50 [4] was 0.895 nM and the Kd [5] was 3.37 nM. For the same binder, the Kd [12] was 0.492 nM and the Kd [13] was 0.156 nM.

B7: 13H04 (purified from hybridoma supernatant) (antibody, V domains shown)
VH: QVQLVQSGAEVKKPGASVKVSCKASGYTFTSYGISWVRQAPGQGLEWMGWISAHNANTNYAQKLQGRVTMTTDTSTSTAYMELRSLRSDDTAMYYCARLYRNWFDPWGQGTLVTVSS
VL: B6 VL with F91C, V99L, V100L
notes: as for B5
With B7 the IC50 [1] was 1.97 nM, the binding result [14] was “no binding” and the binding result [2] was “binds”. The “HT29 IL-8 release, IC50” value [3] was 1.33 nM, the IC50 [4] was 1.09 nM and the Kd [5] was 1.57 nM. The Kd [12] was 0.881 nM and the Kd [13] was 0.561 nM.

B8: 42A02 (purified from hybridoma supernatant) (antibody, V domains shown)
VH: EVQLVESGGGLVQPGGSLRLSCAASGFTFSSYVMSWVRQAPGKGLEWVSVISSSGVTTYYADSVKGRFTISRDNSKNTLYLQMNSLRAEETAVYYCAKGNYGSGSFCDYWGQGTPVTVSS
VL: SYVLTQPPSVSVAPGKTARITCGGNNIGSKSVHWYQQRPGQAPILVIYYDSDRPSGIPERFSGSNSGNSATLTISRVEAGDEADYHCQVWESSSDHPVFGGGTKLTVL
notes: as for B5
For B8, the IC50 [1] was 1.65 nM, the binding result [14] was “no binding” and the binding result [2] was “binds”. The “HT29 IL-8 release, IC50” value [3] was 0.917 nM, the IC50 [4] was 0.898 nM and the Kd [5] was 0.161 nM. It also gave a Kd [12] of 0.062 nM and a Kd [13] of 0.084 nM.

B9: 144F05 (purified from hybridoma supernatant) (antibody, V domains shown)
VH: QVQLQESGPGLVKPSGTLSLTCAVSGGSISSTHWWNWVRQPPGKGLEWIGEIYHSGSTNCNPSLKSRVTISVDKSKNQFSLKMNSVTAADTAVYYCTRGGAAAGTNYGLDVWGQGTTVTVSS
VL: not shown
notes: as for B1
B9 was tested, and the IC50 [1] was 3.32 nM, the binding result [14] was “no binding” and the binding result [2] was “binds”. For the same binder, the “HT29 IL-8 release, IC50” value [3] was 2.75 nM, the IC50 [4] was 1.34 nM and the Kd [5] was 5.78 nM. The Kd [12] was 3.25 nM and the Kd [13] was 2.89 nM.
